Consider two molecules from paper PMC8930183, “Structure of the Pf12 and Pf41 heterodimeric complex of Plasmodium falciparum 6-cysteine proteins” (FEMS Microbes, 2022).

Details in all cases: both partners purified
The target of experiment [1] is T1, Pf41 D1D2 (residues 21-368), untagged (Plasmodium falciparum, UniProt Q8I1Y0 21-368).
T1 construct: Pf41, Plasmodium falciparum 6-cysteine protein, residues K21-S368 (D1 with the inserted-domain-like region ID, and D2); lacks the signal peptide and ten C-terminal residues; After TEV cleavage three residues, GAS, remain at the N-terminus as cloning artefacts; N-glycosylation sites kept; treated with PNGase F before crystallisation; also called Pf41 wildtype; source: Spodoptera frugiperda 21 …
T1 sequence (looked up): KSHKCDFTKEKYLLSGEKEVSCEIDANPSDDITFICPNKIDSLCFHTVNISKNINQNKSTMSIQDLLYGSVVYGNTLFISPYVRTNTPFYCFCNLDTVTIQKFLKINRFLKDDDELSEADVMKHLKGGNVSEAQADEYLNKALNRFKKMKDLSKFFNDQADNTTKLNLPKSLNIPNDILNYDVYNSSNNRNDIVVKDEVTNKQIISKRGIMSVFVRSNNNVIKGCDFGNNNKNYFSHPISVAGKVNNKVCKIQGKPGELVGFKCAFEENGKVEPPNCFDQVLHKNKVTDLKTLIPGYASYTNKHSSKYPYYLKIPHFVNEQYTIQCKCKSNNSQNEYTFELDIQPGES
Put plainly: BLI; Octet RED96e; octa-histidine tagged Pf12 loaded on NTA sensors; untagged Pf41 wildtype or mutant 31-1000 nM; PBS pH 7.4, 0.1% BSA, 0.05% TWEEN-20, 25°C; read-out relative maximum response against wildtype.

The target in experiment [2] is T2, Pf41 D1D2 H336A (Plasmodium falciparum, UniProt Q8I1Y0 21-368, H336 to alanine).
T2 construct: Pf41, Plasmodium falciparum, residues K21-S368 (D1D2); source: Spodoptera frugiperda 21 cells, purified (Ni-IMAC, TEV cleavage, SEC); not shown: His8, N-terminal, cleaved
T2 sequence: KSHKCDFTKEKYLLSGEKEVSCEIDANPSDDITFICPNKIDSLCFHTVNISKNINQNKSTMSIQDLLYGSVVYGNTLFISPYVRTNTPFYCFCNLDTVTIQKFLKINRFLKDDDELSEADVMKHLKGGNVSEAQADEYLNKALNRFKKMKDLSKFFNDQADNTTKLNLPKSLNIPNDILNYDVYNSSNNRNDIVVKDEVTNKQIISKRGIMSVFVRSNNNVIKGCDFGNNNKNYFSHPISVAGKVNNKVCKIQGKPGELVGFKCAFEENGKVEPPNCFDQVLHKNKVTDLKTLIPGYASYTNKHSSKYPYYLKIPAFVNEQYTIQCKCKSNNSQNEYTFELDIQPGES
The experiment is described as above.

The target in experiment [3] is T3, Pf41 D1D2 F166L (Plasmodium falciparum, UniProt Q8I1Y0 21-368, F166 L).
T3 construct: Pf41, Plasmodium falciparum, residues K21-S368 (D1D2); source: Spodoptera frugiperda 21 cells, purified (Ni-IMAC, TEV cleavage, SEC); not shown: His8, N-terminal, cleaved
T3 sequence: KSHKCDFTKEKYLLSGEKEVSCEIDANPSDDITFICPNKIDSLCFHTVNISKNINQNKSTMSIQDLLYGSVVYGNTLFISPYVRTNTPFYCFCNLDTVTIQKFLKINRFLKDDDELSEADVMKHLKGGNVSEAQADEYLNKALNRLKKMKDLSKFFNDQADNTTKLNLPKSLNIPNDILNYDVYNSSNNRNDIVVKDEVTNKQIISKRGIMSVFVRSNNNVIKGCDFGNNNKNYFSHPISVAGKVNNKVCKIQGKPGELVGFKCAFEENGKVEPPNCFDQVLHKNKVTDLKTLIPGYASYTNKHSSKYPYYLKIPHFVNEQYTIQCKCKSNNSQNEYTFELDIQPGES
Described as above.

Experiment [4] deals with T4, Pf41 D1D2 N339A (Plasmodium falciparum, UniProt Q8I1Y0 21-368, N339A).
T4 construct: Pf41, Plasmodium falciparum, residues K21-S368 (D1D2); source: Spodoptera frugiperda 21 cells, purified (Ni-IMAC, TEV cleavage, SEC); not shown: His8, N-terminal, cleaved
T4 sequence: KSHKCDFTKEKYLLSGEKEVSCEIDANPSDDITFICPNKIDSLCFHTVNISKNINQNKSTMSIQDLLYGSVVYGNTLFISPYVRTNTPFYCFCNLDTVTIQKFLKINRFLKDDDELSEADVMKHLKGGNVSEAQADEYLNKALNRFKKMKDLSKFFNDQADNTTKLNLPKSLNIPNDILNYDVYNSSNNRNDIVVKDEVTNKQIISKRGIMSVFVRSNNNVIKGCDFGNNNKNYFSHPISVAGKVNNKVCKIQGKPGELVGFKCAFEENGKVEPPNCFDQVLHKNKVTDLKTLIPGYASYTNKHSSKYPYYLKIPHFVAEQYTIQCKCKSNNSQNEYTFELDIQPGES
The experiment is described as above.

The target of experiment [5] is T5, Pf41 D1D2 E367A (Plasmodium falciparum, UniProt Q8I1Y0 21-368, E367A).
T5 construct: Pf41, Plasmodium falciparum, residues K21-S368 (D1D2); source: Spodoptera frugiperda 21 cells, purified (Ni-IMAC, TEV cleavage, SEC); not shown: His8, N-terminal, cleaved
T5 sequence: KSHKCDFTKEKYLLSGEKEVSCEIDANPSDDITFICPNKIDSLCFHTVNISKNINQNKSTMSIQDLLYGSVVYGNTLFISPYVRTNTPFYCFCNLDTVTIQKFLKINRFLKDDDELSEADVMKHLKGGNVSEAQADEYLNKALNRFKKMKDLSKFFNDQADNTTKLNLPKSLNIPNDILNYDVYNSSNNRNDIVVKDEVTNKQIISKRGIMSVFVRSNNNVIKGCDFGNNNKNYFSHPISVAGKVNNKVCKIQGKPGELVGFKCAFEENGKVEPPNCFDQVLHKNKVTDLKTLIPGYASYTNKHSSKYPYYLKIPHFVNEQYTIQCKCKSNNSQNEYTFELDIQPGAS
The experiment is described as above.

The target of experiment [6] is T6, Pf41 D1D2 E340A (Plasmodium falciparum, UniProt Q8I1Y0 21-368, E340A).
T6 construct: Pf41, Plasmodium falciparum, residues K21-S368 (D1D2); source: Spodoptera frugiperda 21 cells, purified (Ni-IMAC, TEV cleavage, SEC); not shown: His8, N-terminal, cleaved
T6 sequence: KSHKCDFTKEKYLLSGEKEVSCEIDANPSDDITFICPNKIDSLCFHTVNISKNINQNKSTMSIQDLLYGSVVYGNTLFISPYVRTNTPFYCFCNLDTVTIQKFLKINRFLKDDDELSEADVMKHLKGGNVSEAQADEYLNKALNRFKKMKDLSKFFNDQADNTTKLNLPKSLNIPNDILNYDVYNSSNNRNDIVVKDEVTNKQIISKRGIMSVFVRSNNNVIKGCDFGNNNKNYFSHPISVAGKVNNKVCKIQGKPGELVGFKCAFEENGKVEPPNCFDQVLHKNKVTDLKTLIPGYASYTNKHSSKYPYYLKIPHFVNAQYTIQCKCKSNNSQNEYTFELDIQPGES
Described as above.

The target of experiment [7] is T7, Pf41 D1D2 (residues 21-368), untagged (Plasmodium falciparum, UniProt Q8I1Y0).
T7 construct: Pf41, Plasmodium falciparum 6-cysteine protein, residues K21-S368 (D1 with the inserted-domain-like region ID, and D2); lacks the signal peptide and ten C-terminal residues; After TEV cleavage three residues, GAS, remain at the N-terminus as cloning artefacts; N-glycosylation sites kept; treated with PNGase F before crystallisation; also called Pf41 wildtype; source: Spodoptera frugiperda 21 …
Put plainly: BLI; Octet RED96e; nanobodies loaded on NTA sensors; untagged Pf12 or Pf41 (6-200 nM) or their domains in solution; PBS pH 7.4, 0.1% BSA, 0.05% TWEEN-20, 25°C; global 1:1 fit. On the technique in general: BLI is a label-free optical method that tracks binding on a fibre tip over time.

Experiment [8] has as its target T8, Pf12 D2 (residues E174-S304) (Plasmodium falciparum, UniProt C6KSX0).
T8 construct: Pf12, Plasmodium falciparum, C-terminal 6-cys domain D2, residues E174-S304; also called Pf12 D2 domain; source: Spodoptera frugiperda 21 cells, purified by the same protocol as Pf12 D1D2; not shown: His8, N-terminal, cleaved
The description is as above.

Experiment [9] has as its target T9, Pf12 D1 (residues N28-L172) (Plasmodium falciparum, UniProt C6KSX0).
T9 construct: Pf12, Plasmodium falciparum, N-terminal 6-cys domain D1, residues N28-L172; also called Pf12 D1 domain; source: Spodoptera frugiperda 21 cells, purified by the same protocol as Pf12 D1D2; not shown: His8, N-terminal, cleaved
Described as above.

Experiment [10] has as its target T10, Pf12 D1D2 (residues 28-304), untagged (Plasmodium falciparum, UniProt C6KSX0).
T10 construct: Pf12, Plasmodium falciparum 6-cysteine protein, residues N28-S304 (domains D1 and D2); lacks the signal peptide and the GPI-anchor site; After TEV cleavage three residues, GAS, remain at the N-terminus as cloning artefacts; N-glycosylation sites kept; treated with PNGase F before crystallisation; also called Pf12 wildtype; source: Spodoptera frugiperda 21 cells, secreted into growth media, …
The experiment is described as above.

B1: octa-histidine tagged Pf12 D1D2 (residues 28-304) (domain or fragment)
chain: NLTCDFNDVYKLEFHPNQQTSVTKLCNLTPNVLEKVTIKCGSDKLNYNLYPPTCFEEVYASRNMMHLKKIKEFVIGSSMFMRRSLTPNKINEVSFRIPPNMMPEKPIYCFCENKKTITINGSNGNPSSKKDIINRGIVEIIIPSLNEKVKGCDFTTSESTIFSKGYSINEISNKSSNNQQDIVCTVKAHANDLIGFKCPSNYSVEPHDCFVSAFNLSGKNENLENKLKLTNIIMDHYNNTFYSRLPSLISDNWKFFCVCSKDNEKKLVFTVEASISS
notes: Pf12, Plasmodium falciparum 6-cysteine protein, residues N28-S304 (domains D1 and D2); TEV-cleavable tag left on; loaded on NTA sensors; also called tagged wildtype Pf12; source: Spodoptera frugiperda 21 cells, secreted into growth media, purified as tagged protein (Ni-IMAC, SEC); not shown: His8, N-terminal, kept
As for B1, the binding result in experiment [1], in experiment [2], in [3], in experiment [4], in experiment [5] and in experiment [6] was “binds” throughout.

B2: nanobody H2 (VHH)
VHH: QVQLQESGGGSVQAGGSLRLSCTTSRRTRNTHAMGWFRQAPGKEREFVAAISWIDSSTYYADSVKGRFTMSGGNARNTVYLQMNSLEPEDTAVYYCAAGSVVAGFWEEVGYDYWGQGTQVTVSS
notes: alpaca, immunised with Pf12-Pf41 complex; Pf12-specific (D1 domain); source: E. coli WK6, periplasmic extract, purified (HisTrap, SEC)
Consider B2, for which the binding result is reported as “no binding” in [7], “no binding” in experiment [8], “binds” in [9] and “binds” in [10].
